One series deals with T1, Zip4S.
T1 sequence: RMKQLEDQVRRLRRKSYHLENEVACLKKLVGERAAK

The next series deals with T2, Zip 2.
T2 sequence: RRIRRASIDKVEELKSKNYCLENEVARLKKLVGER

The subject of another series is T3, Zip4T.
T3 sequence: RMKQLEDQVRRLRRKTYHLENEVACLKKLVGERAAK

Another series has as its system T4, Zip 1.
T4 sequence: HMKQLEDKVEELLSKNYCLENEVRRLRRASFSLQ

Series [1] deals with the molecule itself. In words: circular dichroism thermal denaturation (self-association of unmodified Zip4S is implied).
Procedure: The circular dichroism (measured in units of ellipticity) of proteins at 222 nm provides a measure of the amount of α-helix present in the structure, with a large, negative ellipticity indicting a high level of helicity. […] In all experiments described herein, peptide concentration was determined by tyrosine absorbance at 280 nm in 6M GuHCl.

Consider “Ca2+/Calmodulin-dependent Protein Kinase (CaMKII)”, for which, in the series with Zip4S, the “timecourse of phosphorylation (32P incorporation)” value was “CaMKII was unable to phosphorylate Zip4S”. protein kinase A (PKA): the “phosphorylation by reverse-phase HPLC and radioactive assay” value with Zip 2 was “The peptides were both shown to be good substrates for PKA by reverse-phase HPLC and radioactive assay”; in the series on Zip 1, “The peptides were both shown to be good substrates for PKA by reverse-phase HPLC and radioactive assay”. In addition, the “timecourse of phosphorylation (32P incorporation)” value in the series with Zip4T is “Zip4T is also phosphorylated, but at a slower rate, with full phosphorylation achieved in 30 minutes in this assay”.

RMKQLEDQVRRLRRKSYHLENEVACLKKLVGERAAK (GCN4 numbering)) [Zip4S]: in series [1], the binding result is “binds”.

The values are drawn from patent US20060148017A1 (published 2006).
